Read-outs that look alike come from different tables or passages of the source.
How the values were obtained:
[1] = target: T1, recombinant human Tim-3-Fc (R&D Systems, 2365-TM) (human, UniProt Q8TDQ0 22-202, biotinylated in the Galectin-9 competition ELISA (sites not given)); experiment: SPR Biacore, human Tim-3 Fc;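 also: antibodies captured on an anti-FLAG sensor surface, Tim-3-Fc flowed over as analyte at 25 °C in HBS-EP+ buffer, rates fit with a 1:1 Langmuir model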
T1 construct: Bought protein; also called huTim-3-Fc; biotinylated Tim-3-Fc; not shown: Fc of the bought fusion protein

[2] = target: T2, cynomolgus Tim-3 expressed on CHO cells (cynomolgus monkey); experiment: flow cytometry, CHO-cyno Tim-3 cells
T2 construct: also called cTim-3; Cyno Tim-3 (CHO)
T2 chain: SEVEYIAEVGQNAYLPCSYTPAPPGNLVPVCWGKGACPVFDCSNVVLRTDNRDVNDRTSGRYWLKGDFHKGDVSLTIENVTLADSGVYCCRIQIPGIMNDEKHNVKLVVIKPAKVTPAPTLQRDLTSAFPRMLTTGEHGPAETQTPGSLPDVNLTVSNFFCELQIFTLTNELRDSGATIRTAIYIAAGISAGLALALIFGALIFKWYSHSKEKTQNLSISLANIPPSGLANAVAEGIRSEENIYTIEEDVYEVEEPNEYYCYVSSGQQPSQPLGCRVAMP

[3] = target: T3, human Tim-3 expressed on the cell surface (human, UniProt Q8TDQ0 22-301); experiment: flow cytometry, CHO-human Tim-3 cells
T3 construct: also called hTim-3; Human Tim-3 (CHO)

[4] = target: T1, recombinant human Tim-3-Fc (R&D …); experiment: SPR Biacore, human Tim-3 Fc; KD estimated
[5] = target: T3, human Tim-3 expressed on the cell …; experiment: flow cytometry, activated human CD4+ T cells
[6] = target: T1, recombinant human Tim-3-Fc (R&D …); experiment: competition ELISA, biotin-Tim-3-Fc vs coated Galectin-9
[7] = target: T4, recombinant cynomolgus Tim-3-Fc (R&D Systems, 7914-TM) (cynomolgus monkey); experiment: ELISA, coated cyno Tim-3-Fc
T4 construct: Bought protein; also called cyTim-3-Fc; Cyno Tim-3-Fc; not shown: Fc of the bought fusion protein
T4 chain: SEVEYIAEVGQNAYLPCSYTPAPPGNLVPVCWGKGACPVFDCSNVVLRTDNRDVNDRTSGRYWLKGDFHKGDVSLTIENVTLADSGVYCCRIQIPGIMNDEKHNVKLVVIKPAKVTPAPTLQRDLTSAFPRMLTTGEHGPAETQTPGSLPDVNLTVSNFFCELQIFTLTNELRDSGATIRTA

[8] = target: T1, recombinant human Tim-3-Fc (R&D …); experiment: SPR Biacore, human Tim-3-Fc
[9] = target: T1, recombinant human Tim-3-Fc (R&D …); experiment: ELISA, coated human Tim-3-Fc
[10] = target: T3, human Tim-3 expressed on the cell …; experiment: flow cytometry, CHO-human Tim-3 cells; remark: listed apart in the source
[11] = target: T5, human Tim-3 (Biacore analyte; TIM-3-Fc or TIM-3-HIS, not said which) (human, UniProt Q8TDQ0 22-202); experiment: SPR Biacore, human Tim-3 (Fc or HIS not said)
T5 construct: also called TIM-3 antigen; not shown: Fc or HIS tag

[12] = target: T1, recombinant human Tim-3-Fc (R&D …); experiment: competition ELISA, biotin-Tim-3-Fc vs coated Galectin-9; remark: listed apart in the source
[13] = target: T3, human Tim-3 expressed on the cell …; experiment: cell binding (flow cytometry; cells not given)
[14] = target: T2, cynomolgus Tim-3 expressed on CHO cells; experiment: flow cytometry, CHO-cyno Tim-3 cells
[15] = target: T1, recombinant human Tim-3-Fc (R&D …); experiment: competition ELISA, biotin-Tim-3-Fc vs coated Galectin-9; remark: listed apart in the source
[16] = target: T5, human Tim-3 (Biacore analyte; TIM-3-Fc …); experiment: SPR, Tim-3 analyte
[17] = target: T6, human PD-1 expressed on CHO cells (human, UniProt Q15116 25-288); experiment: flow cytometry, CHO-human PD-1 cells; parameters: Bmax: unit not given here
T6 construct: also called hPD-1; CHO-hPD-1

[18] = target: T3, human Tim-3 expressed on the cell …; experiment: flow cytometry, CHO-human Tim-3 cells; parameters: Bmax: unit not given here
[19] = target: T7, biotinylated recombinant human PD-1 (AcroBiosystems) (human, UniProt Q15116 25-167, limits assumed, biotinylated (sites not given)); experiment: competition, flow cytometry: biotin-PD-1 binding to CHO-human PD-L1 cells
T7 construct: Bought protein; also called biotinylated PD-1

B1: h22E11-VK4-1 × h22E11-VH3-23 (antibody, V domains shown)
VH: EVQLLESGGGLVQPGGSLRLSCAVSGFSLTSYGVHWVRQAPGKGLEWLVVIWSDGSTTYNDSVKGRFTISKDNSKNTVYLQMNSLRAEDTAVYYCARQGGYRYDDAMDYWGQGTLVTVSS
VL: DIVLTQSPDSLAVSLGERATINCKASQSVDYDGNSYVNWYQQKPGQPPKLLIYAASNLESGVPDRFSGSGSGTDFTLTISSLQAEDVAVYYCQQSNEDPYTFGQGTKVEIK
notes: Humanized m22E11
[1]
  koff: 0.000875 s⁻¹
[2]
  Kd: 4.6 nM
[3]
  Kd: 0.9 nM
[4]
  Kd: 5 nM
[5]
  Kd: 0.9 nM
[6]
  IC50: 0.67 nM

B2: h22E11-VK3-11 × h22E11-5-IgG-HC (antibody, V domains shown)
VH: EVQLVESGGGLVQPGGSLRLSCAVSGFSLTSYGVHWVRQAPGKGLEWLVVIWSDGSTTYNSALKSRFTISKDNAKNSVYLQMNSLRAEDTAVYYCARQGGYRYDDAMDYWGQGTLVTVSS
VL: EIVLTQSPATLSLSPGERATLSCKASQSVDYDGNSYVNWYQQKPGQAPRLLIYAASNLESGIPARFSGSGSGTDFTLTISSLEPEDFAVYYCQQSNEDPYTFGQGTKVEIK
notes: Humanized m22E11
[1]
  koff: 0.00104 s⁻¹
[2]
  Kd: 5.3 nM
[3]
  Kd: 0.8 nM
[4]
  Kd: 5.9 nM
[5]
  Kd: 1.1 nM
[6]
  IC50: 0.64 nM

B3: h22E11-5-IgG-LC × h22E11-5-IgG-HC (antibody, V domains shown)
VH: EVQLVESGGGLVQPGGSLRLSCAVSGFSLTSYGVHWVRQAPGKGLEWLVVIWSDGSTTYNSALKSRFTISKDNAKNSVYLQMNSLRAEDTAVYYCARQGGYRYDDAMDYWGQGTLVTVSS
VL: EIVLTQSPGTLSLSPGERATLSCKASQSVDYDGNSYVAWYQQKPGQAPRLLIYAASNLESGIPDRFSGSGSGTDFTLTISRLEPEDFAVYYCQQSNEDPYTFGQGTKVEIK
notes: Humanized m22E11; also called h22E11-5 IgG (lot 2)
[1]
  koff: 0.0011 s⁻¹
[3]
  Kd: 1 nM
[4]
  Kd: 6.8 nM
[6]
  IC50: 0.77 nM

B4: SRP1497-A05 (antibody, V domains shown)
VH: EVQLVESGGGLVQPGGSLRLSCAASGFNISNYAIHWVRQAPGKGLEWVADITPDGGYTDYADSVKDRFTISADTSKNTAYLQMNSLRAEDTAVYYCARGYVYRMWDSFDYWGQGTLVTVSS
VL: not shown
notes: IgG with trastuzumab LC; HIS- and FLAG-tagged
[7]
  EC50: 6.19 nM
[8]
  Kd: 2.27 nM
  koff: 0.000458 s⁻¹
  kon: 202000 M⁻¹ s⁻¹
[9]
  EC50: 0.24 nM
[10]
  Kd: 0.5 nM
[11]
  Kd: 64.7 nM
  koff: 0.0219 s⁻¹
  kon: 338000 M⁻¹ s⁻¹
[12]
  IC50: 1.1 nM
[13]
  Kd: 5.6 nM

B5: SRP1649-F06 (antibody, V domains shown)
VH: EVQLVESGGGLVQPGGSLRLSCAASGFNIGNYAIHWVRQAPGKGLEWVADITPGQGYTEYADSVKDRFTISADTSKNTAYLQMNSLRAEDTAVYYCARGYVYRMWDSYDYWGQGTLVTVSS
VL: not shown
notes: as for B4
[14]
  Kd: 5.6 nM
[10]
  Kd: 0.2 nM
[11]
  Kd: 17.3 nM
  koff: 0.00393 s⁻¹
  kon: 227000 M⁻¹ s⁻¹
[15]
  IC50: 0.63 nM

B6: SRP1497-A01 (antibody, V domains shown)
VH: EVQLVESGGGLVQPGGSLRLSCAASGFNISNYAIHWVRQAPGKGLEWVADITPDGGYTDYADSVKGRFTISADTSKNTAYLQMNSLRAEDTAVYYCARGYVYRMWDSFDYWGQGTLVTVSS
VL: not shown
notes: IgG with trastuzumab LC, cell-free expressed; constructs were HIS- and FLAG-tagged
[7]
  EC50: 22.6 nM
[8]
  Kd: 2.15 nM
  koff: 0.000425 s⁻¹
  kon: 197000 M⁻¹ s⁻¹
[9]
  EC50: 0.3 nM
[12]
  IC50: 0.8 nM
[13]
  Kd: 1.17 nM

B7: 1353-G10 scFvFc-zwB × 1649-A01 Hc zwA R31D/TrstmbLC S56D (bispecific antibody)
scFv: not shown
VH: EVQLVESGGGLVQPGGSLRLSCAASGFNISDYYIHWVRQAPGKGLEWVAGITPVRGYTEYADSVKDRFTISADTSKNTAYLQMNSLRAEDTAVYYCARGYVYRMWDSYDYWGQGTLVTVSS
VL: not shown
notes: Tim-3 heavy chain with zwA CH3 mutations
[16]
  Kd: 8.6 nM
[17]
  Bmax: 14000
  Kd: 2.7 nM
[18]
  Bmax: 11300
  Kd: 3.5 nM
[19]
  IC50: 117 nM

B8: 1353-G10 scFvFc-zwB × 1649-A01 Hc zwA R31D/Y56D/TrstmbLC S56D (bispecific antibody)
scFv: not shown
VH: EVQLVESGGGLVQPGGSLRLSCAASGFNISDYYIHWVRQAPGKGLEWVAGITPVRGDTEYADSVKDRFTISADTSKNTAYLQMNSLRAEDTAVYYCARGYVYRMWDSYDYWGQGTLVTVSS
VL: not shown
[16]
  Kd: 8.8 nM
[17]
  Bmax: 12600
  Kd: 1.6 nM
[18]
  Bmax: 11400
  Kd: 3.3 nM
[19]
  IC50: 148 nM

B9: 1353-G10 scFvFc-zwB × 1649-A01 Hc zwA S30D/Y56D/TrstmbLC S56D (bispecific antibody)
scFv: not shown
VH: EVQLVESGGGLVQPGGSLRLSCAASGFNIDRYYIHWVRQAPGKGLEWVAGITPVRGDTEYADSVKDRFTISADTSKNTAYLQMNSLRAEDTAVYYCARGYVYRMWDSYDYWGQGTLVTVSS
VL: not shown
notes: Tim-3 heavy chain with zwA CH3 mutations; also called 1649-A01 Hc zwA S30D/Y56D/TrsimbLC S56D
[16]
  Kd: 9.7 nM
[17]
  Bmax: 9650
  Kd: 1.2 nM
[18]
  Bmax: 10000
  Kd: 3.6 nM
[19]
  IC50: 108 nM

B10: 1353-G10 scFvFc-zwB × 1649-A01 Hc zwA S30D/TrstmbLC S56D (bispecific antibody)
scFv: not shown
VH: EVQLVESGGGLVQPGGSLRLSCAASGFNIDRYYIHWVRQAPGKGLEWVAGITPVRGYTEYADSVKDRFTISADTSKNTAYLQMNSLRAEDTAVYYCARGYVYRMWDSYDYWGQGTLVTVSS
VL: not shown
notes: as for B7
[16]
  Kd: 7.1 nM
[17]
  Bmax: 12500
  Kd: 1.3 nM
[18]
  Bmax: 11700
  Kd: 3.2 nM
[19]
  IC50: 128 nM

B11: 1353-G10 scFvFc-zwB × 1649-A01 Hc zwA S30D/R31D/TrstmbLC S56D (bispecific antibody)
scFv: not shown
VH: EVQLVESGGGLVQPGGSLRLSCAASGFNIDDYYIHWVRQAPGKGLEWVAGITPVRGYTEYADSVKDRFTISADTSKNTAYLQMNSLRAEDTAVYYCARGYVYRMWDSYDYWGQGTLVTVSS
VL: not shown
notes: as for B7
[16]
  Kd: 8.7 nM
[17]
  Bmax: 9860
  Kd: 1.1 nM
[18]
  Bmax: 10500
  Kd: 3.7 nM
[19]
  IC50: 138 nM

B12: 1353-G10 scFvFc-zwB × 1649-A01 Hc zwA S30D/R31D/Y56D/TrstmbLC S56D (bispecific antibody)
scFv: not shown
VH: EVQLVESGGGLVQPGGSLRLSCAASGFNIDDYYIHWVRQAPGKGLEWVAGITPVRGDTEYADSVKDRFTISADTSKNTAYLQMNSLRAEDTAVYYCARGYVYRMWDSYDYWGQGTLVTVSS
VL: not shown
notes: as for B7
[16]
  Kd: 11 nM
[17]
  Bmax: 13000
  Kd: 2.1 nM
[18]
  Bmax: 10900
  Kd: 4.3 nM
[19]
  IC50: 147 nM

B13: SRP1649-A01 (antibody, V domains shown)
VH: EVQLVESGGGLVQPGGSLRLSCAASGFNISRYYIHWVRQAPGKGLEWVAGITPVRGYTEYADSVKDRFTISADTSKNTAYLQMNSLRAEDTAVYYCARGYVYRMWDSYDYWGQGTLVTVSS
VL: not shown
notes: as for B4
[14]
  Kd: 0.5 nM
[10]
  Kd: 0.4 nM
[11]
  Kd: 17.4 nM
  koff: 0.00117 s⁻¹
  kon: 67100 M⁻¹ s⁻¹
[15]
  IC50: 0.26 nM

B14: SRP1497-A02 (antibody, V domains shown)
VH: EVQLVESGGGLVRPGGSLRLSCAASGFNISNYAIHWVRQAPGKGLEWVADITPDGGYTDYADSVKGRFTISADTSKNTAYLQMNSLRAEDTAVYYCARGYVYRMWDSFDYWGQGTLVTVSS
VL: not shown
notes: as for B4
[7]
  EC50: 13.7 nM
[8]
  Kd: 2.95 nM
  koff: 0.000544 s⁻¹
  kon: 185000 M⁻¹ s⁻¹
[9]
  EC50: 0.34 nM
[12]
  IC50: 1 nM
[13]
  Kd: 1.54 nM
